Reference: patent publication US11028180

Legend:
[1] = target: human Jagged1 ECD-His (Met1-Ser1046) (human, UniProt P78504); assay: BLI
[2] = target: T1, human Jagged1 on 293/293T cells (human, UniProt P78504); assay: FACS
[3] = target: rat Jagged1 on 293T cells (rat, UniProt Q63722); assay: FACS
[4] = target: T2, murine Jagged1 on 293T cells (mouse, UniProt Q9QXX0); assay: FACS
T2 chain: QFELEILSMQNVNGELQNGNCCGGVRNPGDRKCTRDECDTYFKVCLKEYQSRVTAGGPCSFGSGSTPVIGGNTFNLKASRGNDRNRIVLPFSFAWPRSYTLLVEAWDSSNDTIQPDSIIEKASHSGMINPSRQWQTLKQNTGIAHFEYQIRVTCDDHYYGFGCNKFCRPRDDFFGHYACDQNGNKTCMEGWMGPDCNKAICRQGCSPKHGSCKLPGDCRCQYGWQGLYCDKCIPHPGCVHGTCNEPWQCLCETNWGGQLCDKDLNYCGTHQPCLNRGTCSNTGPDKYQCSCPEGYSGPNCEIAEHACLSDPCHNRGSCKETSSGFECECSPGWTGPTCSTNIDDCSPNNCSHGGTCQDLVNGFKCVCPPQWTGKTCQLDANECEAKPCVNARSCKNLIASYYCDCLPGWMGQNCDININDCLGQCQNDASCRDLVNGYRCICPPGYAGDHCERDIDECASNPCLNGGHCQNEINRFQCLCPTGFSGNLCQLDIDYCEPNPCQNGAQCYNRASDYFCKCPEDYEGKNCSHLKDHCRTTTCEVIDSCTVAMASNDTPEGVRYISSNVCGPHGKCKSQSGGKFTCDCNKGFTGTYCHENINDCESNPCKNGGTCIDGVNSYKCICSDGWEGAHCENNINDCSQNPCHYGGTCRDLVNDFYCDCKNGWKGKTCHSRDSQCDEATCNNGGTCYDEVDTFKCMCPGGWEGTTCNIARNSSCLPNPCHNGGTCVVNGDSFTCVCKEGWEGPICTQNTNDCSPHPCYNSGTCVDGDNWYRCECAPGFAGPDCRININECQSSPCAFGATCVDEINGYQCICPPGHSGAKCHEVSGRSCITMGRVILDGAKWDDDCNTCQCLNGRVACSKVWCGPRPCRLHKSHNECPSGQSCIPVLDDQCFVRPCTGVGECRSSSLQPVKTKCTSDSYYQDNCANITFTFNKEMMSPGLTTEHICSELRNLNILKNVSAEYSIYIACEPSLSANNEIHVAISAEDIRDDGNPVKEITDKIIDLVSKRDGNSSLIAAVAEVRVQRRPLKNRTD

murine Jagged2-Fc = murine Jagged2-Fc (mouse, UniProt Q9QYE5); assay: ELISA
human Jagged1-His = human Jagged1-His (human, UniProt P78504); assay: ELISA
murine DLL4-His = target: T3, murine DLL4-His (mouse, UniProt Q9JI71); assay: ELISA
T3 chain: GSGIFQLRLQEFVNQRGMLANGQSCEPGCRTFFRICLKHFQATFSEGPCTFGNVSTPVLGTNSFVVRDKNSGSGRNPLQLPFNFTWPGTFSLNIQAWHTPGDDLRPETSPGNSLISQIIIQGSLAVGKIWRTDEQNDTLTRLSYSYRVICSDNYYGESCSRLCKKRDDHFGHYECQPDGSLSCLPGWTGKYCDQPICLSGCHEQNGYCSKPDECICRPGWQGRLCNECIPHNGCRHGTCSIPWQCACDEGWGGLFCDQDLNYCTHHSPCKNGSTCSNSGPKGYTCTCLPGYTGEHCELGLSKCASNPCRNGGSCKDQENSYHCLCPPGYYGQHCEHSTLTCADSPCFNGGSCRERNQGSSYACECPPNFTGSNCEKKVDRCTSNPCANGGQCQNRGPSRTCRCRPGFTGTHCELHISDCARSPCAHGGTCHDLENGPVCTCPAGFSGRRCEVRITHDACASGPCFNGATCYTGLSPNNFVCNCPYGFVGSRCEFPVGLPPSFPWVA

human Jagged2-Fc = human Jagged2-Fc (human, UniProt Q9Y219); assay: ELISA
human DLL4-His = human DLL4-His (human, UniProt Q9NR61); assay: ELISA
murine DLL1-His = murine DLL1-His (mouse, UniProt Q61483); assay: ELISA
human Jagged1-Fc = human Jagged1-Fc (human, UniProt P78504); assay: ELISA
rat Jagged1-Fc = rat Jagged1-Fc (rat, UniProt Q63722); assay: ELISA
[5] = target: T1, human Jagged1 on 293/293T cells; assay: KinExA, on-cell

Sequence of murine Jagged2-Fc (Q9QYE5 24-1082): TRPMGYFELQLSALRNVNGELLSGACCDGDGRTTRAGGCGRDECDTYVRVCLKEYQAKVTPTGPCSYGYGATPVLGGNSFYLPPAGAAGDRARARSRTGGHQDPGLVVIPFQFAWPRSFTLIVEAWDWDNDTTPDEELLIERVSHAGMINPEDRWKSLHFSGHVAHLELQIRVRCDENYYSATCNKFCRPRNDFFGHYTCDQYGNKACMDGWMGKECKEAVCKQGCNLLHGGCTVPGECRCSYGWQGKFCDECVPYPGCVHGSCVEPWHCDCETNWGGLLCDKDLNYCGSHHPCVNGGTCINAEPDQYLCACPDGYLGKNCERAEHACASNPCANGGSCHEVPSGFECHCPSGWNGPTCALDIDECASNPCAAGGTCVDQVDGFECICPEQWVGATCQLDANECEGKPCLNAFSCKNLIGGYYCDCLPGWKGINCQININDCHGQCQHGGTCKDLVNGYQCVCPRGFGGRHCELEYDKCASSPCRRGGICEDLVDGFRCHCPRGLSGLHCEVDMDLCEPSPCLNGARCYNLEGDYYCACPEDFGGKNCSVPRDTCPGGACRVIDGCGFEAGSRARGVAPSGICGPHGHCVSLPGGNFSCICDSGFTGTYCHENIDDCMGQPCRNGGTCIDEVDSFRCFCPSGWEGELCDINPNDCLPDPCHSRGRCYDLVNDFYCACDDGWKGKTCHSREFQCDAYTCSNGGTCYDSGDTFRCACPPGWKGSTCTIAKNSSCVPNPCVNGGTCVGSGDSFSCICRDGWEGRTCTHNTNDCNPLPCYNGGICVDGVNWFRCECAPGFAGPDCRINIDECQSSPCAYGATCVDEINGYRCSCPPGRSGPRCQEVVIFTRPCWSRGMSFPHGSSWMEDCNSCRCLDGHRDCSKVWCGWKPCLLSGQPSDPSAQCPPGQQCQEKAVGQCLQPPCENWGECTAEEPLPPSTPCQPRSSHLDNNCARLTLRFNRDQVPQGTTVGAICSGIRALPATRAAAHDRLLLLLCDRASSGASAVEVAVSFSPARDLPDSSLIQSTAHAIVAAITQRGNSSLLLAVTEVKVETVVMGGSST
Sequence of human Jagged1 ECD-His (Met1-Ser1046) (P78504 1-1046): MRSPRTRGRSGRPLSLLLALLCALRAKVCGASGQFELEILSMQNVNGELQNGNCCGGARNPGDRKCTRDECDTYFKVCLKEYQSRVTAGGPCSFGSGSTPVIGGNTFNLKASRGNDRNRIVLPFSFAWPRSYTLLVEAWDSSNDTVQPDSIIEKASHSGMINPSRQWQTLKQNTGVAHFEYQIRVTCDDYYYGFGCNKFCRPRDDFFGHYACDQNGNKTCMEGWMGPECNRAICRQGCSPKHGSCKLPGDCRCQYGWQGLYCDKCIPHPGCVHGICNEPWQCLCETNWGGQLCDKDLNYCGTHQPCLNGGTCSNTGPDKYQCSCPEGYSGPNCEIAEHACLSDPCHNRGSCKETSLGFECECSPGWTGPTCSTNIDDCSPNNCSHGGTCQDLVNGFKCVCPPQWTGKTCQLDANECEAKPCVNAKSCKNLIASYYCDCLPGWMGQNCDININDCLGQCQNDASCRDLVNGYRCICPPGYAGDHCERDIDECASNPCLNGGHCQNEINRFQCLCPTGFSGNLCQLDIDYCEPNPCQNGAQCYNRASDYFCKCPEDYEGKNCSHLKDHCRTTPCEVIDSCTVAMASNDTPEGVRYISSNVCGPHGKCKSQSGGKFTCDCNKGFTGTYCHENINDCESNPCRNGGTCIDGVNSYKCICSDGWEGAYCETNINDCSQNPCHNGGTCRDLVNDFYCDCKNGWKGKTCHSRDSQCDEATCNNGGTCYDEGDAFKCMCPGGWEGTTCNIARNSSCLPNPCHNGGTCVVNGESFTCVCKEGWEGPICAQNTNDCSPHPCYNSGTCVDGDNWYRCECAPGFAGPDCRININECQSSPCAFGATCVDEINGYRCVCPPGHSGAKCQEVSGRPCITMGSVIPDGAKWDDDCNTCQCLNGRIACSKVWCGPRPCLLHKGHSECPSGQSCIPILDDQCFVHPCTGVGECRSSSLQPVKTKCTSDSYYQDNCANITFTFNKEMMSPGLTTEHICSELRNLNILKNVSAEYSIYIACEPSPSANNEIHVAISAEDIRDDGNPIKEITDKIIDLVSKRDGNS
Sequence of human Jagged2-Fc (Q9Y219 24-1080): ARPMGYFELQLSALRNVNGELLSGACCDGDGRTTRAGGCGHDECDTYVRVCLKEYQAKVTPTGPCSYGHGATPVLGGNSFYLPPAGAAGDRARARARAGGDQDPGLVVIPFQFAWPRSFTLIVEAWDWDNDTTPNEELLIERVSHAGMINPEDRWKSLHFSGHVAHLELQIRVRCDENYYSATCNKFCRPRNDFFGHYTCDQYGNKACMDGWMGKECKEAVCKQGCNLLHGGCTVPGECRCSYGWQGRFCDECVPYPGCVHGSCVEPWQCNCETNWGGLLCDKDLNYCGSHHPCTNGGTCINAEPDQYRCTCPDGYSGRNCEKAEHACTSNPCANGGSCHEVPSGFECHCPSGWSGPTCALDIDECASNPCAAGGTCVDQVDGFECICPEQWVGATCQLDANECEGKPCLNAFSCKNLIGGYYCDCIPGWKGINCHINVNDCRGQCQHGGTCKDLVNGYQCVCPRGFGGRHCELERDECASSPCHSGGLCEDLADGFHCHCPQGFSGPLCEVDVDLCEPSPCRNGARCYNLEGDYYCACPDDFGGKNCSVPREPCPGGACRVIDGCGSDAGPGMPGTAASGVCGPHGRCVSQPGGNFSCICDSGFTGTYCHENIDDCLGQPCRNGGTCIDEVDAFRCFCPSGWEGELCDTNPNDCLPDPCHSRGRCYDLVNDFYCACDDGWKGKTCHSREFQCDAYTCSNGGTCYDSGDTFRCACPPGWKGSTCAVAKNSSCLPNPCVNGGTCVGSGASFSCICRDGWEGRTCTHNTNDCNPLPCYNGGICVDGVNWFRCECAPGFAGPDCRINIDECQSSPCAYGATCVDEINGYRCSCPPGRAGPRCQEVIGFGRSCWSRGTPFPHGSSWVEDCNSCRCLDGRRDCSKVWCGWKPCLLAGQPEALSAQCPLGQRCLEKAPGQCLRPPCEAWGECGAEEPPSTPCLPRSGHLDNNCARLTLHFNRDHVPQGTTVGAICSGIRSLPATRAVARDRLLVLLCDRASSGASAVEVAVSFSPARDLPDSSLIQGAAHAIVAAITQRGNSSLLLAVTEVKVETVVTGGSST
Sequence of murine DLL1-His (Q61483 18-545): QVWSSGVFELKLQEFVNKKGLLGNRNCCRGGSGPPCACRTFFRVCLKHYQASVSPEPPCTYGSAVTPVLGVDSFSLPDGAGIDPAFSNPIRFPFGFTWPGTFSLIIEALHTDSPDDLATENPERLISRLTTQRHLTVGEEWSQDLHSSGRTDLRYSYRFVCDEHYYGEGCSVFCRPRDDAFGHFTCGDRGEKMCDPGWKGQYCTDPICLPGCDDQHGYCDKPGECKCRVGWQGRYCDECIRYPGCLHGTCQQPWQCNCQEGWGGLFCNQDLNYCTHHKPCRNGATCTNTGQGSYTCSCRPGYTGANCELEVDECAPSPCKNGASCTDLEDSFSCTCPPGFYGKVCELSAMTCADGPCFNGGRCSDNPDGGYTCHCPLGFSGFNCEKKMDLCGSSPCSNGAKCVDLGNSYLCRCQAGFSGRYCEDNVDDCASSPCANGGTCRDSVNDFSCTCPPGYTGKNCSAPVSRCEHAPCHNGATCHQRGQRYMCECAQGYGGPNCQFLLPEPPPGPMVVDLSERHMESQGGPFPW
Sequence of human DLL4-His (Q9NR61 27-529): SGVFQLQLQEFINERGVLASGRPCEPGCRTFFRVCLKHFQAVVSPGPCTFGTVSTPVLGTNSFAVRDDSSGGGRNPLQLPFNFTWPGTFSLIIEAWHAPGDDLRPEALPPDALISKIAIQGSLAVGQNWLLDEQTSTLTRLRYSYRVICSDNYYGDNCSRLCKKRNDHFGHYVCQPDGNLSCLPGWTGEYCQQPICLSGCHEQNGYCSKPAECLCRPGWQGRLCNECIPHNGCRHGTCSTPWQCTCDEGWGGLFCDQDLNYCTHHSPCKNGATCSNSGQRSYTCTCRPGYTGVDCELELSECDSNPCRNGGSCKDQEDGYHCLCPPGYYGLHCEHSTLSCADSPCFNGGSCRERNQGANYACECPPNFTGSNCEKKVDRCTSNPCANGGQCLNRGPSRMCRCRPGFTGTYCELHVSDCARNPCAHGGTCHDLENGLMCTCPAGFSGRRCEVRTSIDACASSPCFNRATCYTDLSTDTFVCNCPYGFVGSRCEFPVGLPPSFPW

Kd [1]: 0.614 nM
EC50 [2]: 0.29 nM
EC50 [3]: 0.25 nM
EC50 [4]: 0.36 nM
binding result (murine Jagged2-Fc): no binding
EC50 (human Jagged1-His): 0.39 nM
binding result (murine DLL4-His): no binding
binding result (human Jagged2-Fc): no binding
binding result (human DLL4-His): no binding
binding result (murine DLL1-His): no binding
EC50 (human Jagged1-Fc): 0.8 nM
EC50 (rat Jagged1-Fc): 0.51 nM
Kd [5]: 0.125 nM
B1: 15D11.1 (antibody, V domains shown)
VH: QVTLKESGPVLVKPTETLTLTCTVSGFSLSNAEMGVSWIRQPPGKALEWLAHLFSNDEKSYSTSLKSRLTISKDTSKSQVVLTMTDLDPVDTATYYCARSFNWNYDFDYWGQGTLVTVSS
VL: QSALTQPASVSGSPGQSITISCTGTSSAVGGHNFVSWYQQYPGKAPKLMIYEVSNRPSGVSTRFSGSKSGNTASLTISGLQAEDEADYYCSSYTSSSTWVFGGGTRLTVL
